Measured values as given in patent US20140113288.
Where a chain is given by its changes, count along the chain named.

Sequence of syncytin-1-HA, Q9UQF0 (Q9UQF0 21-538): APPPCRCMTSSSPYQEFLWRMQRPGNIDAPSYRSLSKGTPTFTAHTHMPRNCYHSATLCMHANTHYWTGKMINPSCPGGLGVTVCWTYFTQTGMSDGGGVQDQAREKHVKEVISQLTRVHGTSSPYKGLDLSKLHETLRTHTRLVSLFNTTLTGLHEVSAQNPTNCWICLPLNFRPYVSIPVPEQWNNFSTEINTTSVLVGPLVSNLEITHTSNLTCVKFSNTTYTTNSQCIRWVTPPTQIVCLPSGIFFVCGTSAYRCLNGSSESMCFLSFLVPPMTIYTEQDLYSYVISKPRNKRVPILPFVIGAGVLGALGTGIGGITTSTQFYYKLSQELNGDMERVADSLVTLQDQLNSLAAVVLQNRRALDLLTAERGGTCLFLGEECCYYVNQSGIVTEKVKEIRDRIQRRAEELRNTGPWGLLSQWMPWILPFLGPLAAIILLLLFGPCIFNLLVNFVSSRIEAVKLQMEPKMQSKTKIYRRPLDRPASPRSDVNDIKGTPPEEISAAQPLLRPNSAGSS

B1: HtrA4-FLAG (protein)
chain: EKLHTQPSCPAVCQPTRCPALPTCALGTTPVFDLCRCCRVCPAAEREVCGGAQGQPCAPGLQCLQPLRPGFPSTCGCPTLGGAVCGSDRRTYPSMCALRAENRAARRLGKVPAVPVQWGNCGDTGTRSAGPLRRNYNFIAAVVEKVAPSVVHVQLWGRLLHGSRLVPVYSGSGFIVSEDGLIITNAHVVRNQQWIEVVLQNGARYEAVVKDIDLKLDLAVIKIESNAELPVLMLGRSSDLRAGEFVVALGSPFSLQNTATAGIVSTKQRGGKELGMKDSDMDYVQIDATINYGNSGGPLVNLDGDVIGVNSLRVTDGISFAIPSDRVRQFLAEYHEHQMKGKAFSNKKYLGLQMLSLTVPLSEELKMHYPDFPDVSSGVYVCKVVEGTAAQSSGLRDHDVIVNINGKPITTTTDVVKALDSDSLSMAVLRGKDNLLLTVIPETIN
B1 was tested, and the “protein level of surface syncytin-1-HA TM subunit (biotinylation, streptavidin pull-down, HA mAb)” value (syncytin-1-HA, Q9UQF0) was “the protein level of the TM subunit of syncytin-1-HA decreased in the presence of HtrA4-FLAG, but not HtrA4mt-FLAG” and the “cleavage of fibronectin (immunoblotting with anti-fibronectin Ab)” value (fibronectin) was “cleavage of fibronectin by HtrA4-FLAG, but not HtrA4mt-FLAG, was observed in a dose-dependent manner”.

B2: HtrA4mt-FLAG (protein)
chain: B1 chain with S295A
B2 was tested, and the “protein level of surface syncytin-1-HA TM subunit (biotinylation, streptavidin pull-down, HA mAb)” value (syncytin-1-HA, Q9UQF0) was “the protein level of the TM subunit of syncytin-1-HA decreased in the presence of HtrA4-FLAG, but not HtrA4mt-FLAG” and the “cleavage of fibronectin (immunoblotting with anti-fibronectin Ab)” value (fibronectin) was “cleavage of fibronectin by HtrA4-FLAG, but not HtrA4mt-FLAG, was observed in a dose-dependent manner”.
